Laboratory results taken from patent publication US20250277023A1 (published 2025).

How the values were obtained:
[1] = biological target: T1, PD-L1 (on CHO-PD-L1 cells) (UniProt Q9NZQ7 19-290); test: FACS binding; Fig. 25
[2] = biological target: T1, PD-L1 (on CHO-PD-L1 cells); test: FACS binding; Fig. 22

T1 sequence (Q9NZQ7 19-290): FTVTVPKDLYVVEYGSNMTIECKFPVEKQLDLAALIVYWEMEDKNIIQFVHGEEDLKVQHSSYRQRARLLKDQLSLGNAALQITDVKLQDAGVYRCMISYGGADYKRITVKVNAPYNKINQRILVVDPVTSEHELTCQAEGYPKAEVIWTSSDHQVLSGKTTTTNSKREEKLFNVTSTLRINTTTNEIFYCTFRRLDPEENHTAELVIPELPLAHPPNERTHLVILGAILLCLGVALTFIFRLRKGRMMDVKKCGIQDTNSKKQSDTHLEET

Binder	EC50 [1] [nM]	EC50 [2] [nM]
R1110: TIGIT_VH_IL15RA (sushi65 T2A)/TIGIT_VL_IL15/PD-L1-Fab (bispecific antibody) chain 1: QVQLVQSGAEVKKPGSSVKVSCKASGYSFTSYWMNWVRQAPGQGLEWIGMIRPSDSETRLNQMFKDRVTITVDKSTSTAYMELSSLRSEDTAVYYCAGIHDYGHGAYWGQGTLVTVSSGGGGSGGGGSGGGGSGGGGSGIACPPPMSVEHADIWVKSYSLYSRERYICNSGFKRKAGTSSLTECVLNKATNVAHWTTPSLKCIREPKSSDKTHTCPPCPAPELLGGPSVFLFPPKPKDTLMISRTPEVTCVVVDVSHEDPEVKFNWYVDGVEVHNAKTKPREEQYNSTYRVVSVLTVLHQDWLNGKEYKCKVSNKALPAPIEKTISKAKGQPREPQVYTLPPSREEMTKNQVSLTCRVKGFYPSDIAVEWESNGQPENNYKTTPPVLKSDGSFFLASKLTVDKSRWQQGNVFSCSVMHEALHNHYTQKSLSLSPGK chain 2: DIQMTQSPSSLSASVGDRVTITCRASENIYSNLAWYQQKPGKSPKLLVYAASHLPDGVPSRFSGSGSGTDYSLTISSLQPEDFATYYCQHFWGTPRTFGQGTKLEIKGGGGSGGGGSGGGGSGGGGSGNWVNVISDLKKIEDLIQSMHIDATLYTESDVHPSCKVTAMKCFLLELQVISLESGDASIHNTVQDLIILANNSLSSNGNVTESGCKECEELEEKNIKEFLQSFVHIVQMFINTS heavy: QVQLQESGPGLVKPSETLSLTCAVYGDSITSGYWNWIRKPPGKGLEYIGYISYTGSTYQNPSLKSRITMSRDTSKNQYYLKLSSVTAADTAVYYCARSRAWIRTYFDYWGQGTLVTVSSASTKGPSVFPLAPSSKSTSGGTAALGCLVKDYFPEPVTVSWNSGALTSGVHTFPAVLQSSGLYSLSSVVTVPSSSLGTQTYICNVNHKPSNTKVDKRVEPKSCDKTHTCPPCPAPELLGGPSVFLFPPKPKDTLMISRTPEVTCVVVDVSHEDPEVKFNWYVDGVEVHNAKTKPREEQYNSTYRVVSVLTVLHQDWLNGKEYKCKVSNKALPAPIEKTISKAKGQPREPQVYTLPPSREEMTKNQVSLWCLVKGFYPSDIAVEWESNGQPENNYDTTPPVLDSDGSFFLYSDLTVDKSRWQQGNVFSCSVMHEALHNHYTQKSLSLSPGK light: DIQMTQSPSSLSASVGDRVTITCSVSSSISSSNLHWYQQKPGKAPKPWIYGTSNLASGVPSRFSGSGSGTDYTLTISSLQPEDFATYYCQQWSSYPLTFGQGTKLEIKRTVAAPSVFIFPPSDEQLKSGTASVVCLLNNFYPREAKVQWKVDNALQSGNSQESVTEQDSKDSTYSLSSTLTLSKADYEKHKVYACEVTHQGLSSPVTKSFNRGEC	1.53	–
R1116: TIGIT_VH_IL2/TIGIT_VL_IL2RA/PD-L1-Fab (bispecific antibody) chain 1: not shown chain 2: DIQMTQSPSSLSASVGDRVTITCRASENIYSNLAWYQQKPGKSPKLLVYAASHLPDGVPSRFSGSGSGTDYSLTISSLQPEDFATYYCQHFWGTPRTFGQGTKLEIKGGGGSGGGGSGGGGSGGGGSGELCDDDPPEIPHATFKAMAYKEGTMLNCECKRGFRRIKSGSLYMLCTGNSSHSSWDNQCQCTSSATRNTTKQVTPQPEEQKERKTTEMQSPMQPVDQASLPGHCREPPPWENEATERIYHFVVGQMVYYQCVQGYRALHRGPAESVCKMTHGKTRWTQPQLICTG heavy: EVQLQESGPGLVKPSETLSLTCAVYGDSITSGYWNWIRKPPGKGLEYMGYISYTGSTYQNPSLKSRITFSRDTSKNQYYLKLSSVTAADTATYYCARSRAWIRTYFDYWGQGTLVTVSSASTKGPSVFPLAPSSKSTSGGTAALGCLVKDYFPEPVTVSWNSGALTSGVHTFPAVLQSSGLYSLSSVVTVPSSSLGTQTYICNVNHKPSNTKVDKRVEPKSCDKTHTCPPCPAPELLGGPSVFLFPPKPKDTLMISRTPEVTCVVVDVSHEDPEVKFNWYVDGVEVHNAKTKPREEQYNSTYRVVSVLTVLHQDWLNGKEYKCKVSNKALPAPIEKTISKAKGQPREPQVYTLPPSREEMTKNQVSLWCLVKGFYPSDIAVEWESNGQPENNYDTTPPVLDSDGSFFLYSDLTVDKSRWQQGNVFSCSVMHEALHNHYTQKSLSLSPGK light: EIVLTQSPDFQSVTPKEKVTITCSVSSSISSSNLHWYQQKPDQSPKLLIYGTSNLASGVPSRFSGSGSGTDFTLTINSLEAEDAATYYCQQWSSYPLTFGQGTKLEIKRTVAAPSVFIFPPSDEQLKSGTASVVCLLNNFYPREAKVQWKVDNALQSGNSQESVTEQDSKDSTYSLSSTLTLSKADYEKHKVYACEVTHQGLSSPVTKSFNRGEC	–	4.15
R1120: TIGIT_VH_IL18R1_D1D2D3/TIGIT_VL_IL18/PD-L1-Fab (bispecific antibody) chain 1: QVQLVQSGAEVKKPGSSVKVSCKASGYSFTSYWMNWVRQAPGQGLEWIGMIRPSDSETRLNQMFKDRVTITVDKSTSTAYMELSSLRSEDTAVYYCAGIHDYGHGAYWGQGTLVTVSSGGGGSGGGGSGGGGSGGGGSGCTSRPHITVVEGEPFYLKHCSCSLAHEIETTTKSWYKSSGSQEHVELNPRSSSRIALHDCVLEFWPVELNDTGSYFFQMKNYTQKWKLNVIRRNKHSCFTERQVTSKIVEVKKFFQITCENSYYQTLVNSTSLYKNCKKLLLENNKNPTIKKNAEFEDQGYYSCVHFLHHNGKLFNITKTFNITIVEDRSNIVPVLLGPKLNHVAVELGKNVRLNCSALLNEEDVIYWMFGEENGSDPNIHEEKEMRIMTPEGKWHASKVLRIENIGESNLNVLYNCTVASTGGTDTKSFIEPKSSDKTHTCPPCPAPELLGGPSVFLFPPKPKDTLMISRTPEVTCVVVDVSHEDPEVKFNWYVDGVEVHNAKTKPREEQYNSTYRVVSVLTVLHQDWLNGKEYKCKVSNKALPAPIEKTISKAKGQPREPQVYTLPPSREEMTKNQVSLTCRVKGFYPSDIAVEWESNGQPENNYKTTPPVLKSDGSFFLASKLTVDKSRWQQGNVFSCSVMHEALHNHYTQKSLSLSPGK chain 2: not shown heavy: EVQLQESGPGLVKPSETLSLTCAVYGDSITSGYWNWIRKPPGKGLEYMGYISYTGSTYQNPSLKSRITFSRDTSKNQYYLKLSSVTAADTATYYCARSRAWIRTYFDYWGQGTLVTVSSASTKGPSVFPLAPSSKSTSGGTAALGCLVKDYFPEPVTVSWNSGALTSGVHTFPAVLQSSGLYSLSSVVTVPSSSLGTQTYICNVNHKPSNTKVDKRVEPKSCDKTHTCPPCPAPELLGGPSVFLFPPKPKDTLMISRTPEVTCVVVDVSHEDPEVKFNWYVDGVEVHNAKTKPREEQYNSTYRVVSVLTVLHQDWLNGKEYKCKVSNKALPAPIEKTISKAKGQPREPQVYTLPPSREEMTKNQVSLWCLVKGFYPSDIAVEWESNGQPENNYDTTPPVLDSDGSFFLYSDLTVDKSRWQQGNVFSCSVMHEALHNHYTQKSLSLSPGK light: EIVLTQSPDFQSVTPKEKVTITCSVSSSISSSNLHWYQQKPDQSPKLLIYGTSNLASGVPSRFSGSGSGTDFTLTINSLEAEDAATYYCQQWSSYPLTFGQGTKLEIKRTVAAPSVFIFPPSDEQLKSGTASVVCLLNNFYPREAKVQWKVDNALQSGNSQESVTEQDSKDSTYSLSSTLTLSKADYEKHKVYACEVTHQGLSSPVTKSFNRGEC	–	2.99
R1111: TIGIT_VH_IL15RA (sushi65 T2A, T81A, T86A)/TIGIT_VL_IL15/PD-L1-Fab (bispecific antibody) chain 1: QVQLVQSGAEVKKPGSSVKVSCKASGYSFTSYWMNWVRQAPGQGLEWIGMIRPSDSETRLNQMFKDRVTITVDKSTSTAYMELSSLRSEDTAVYYCAGIHDYGHGAYWGQGTLVTVSSGGGGSGGGGSGGGGSGGGGSGIACPPPMSVEHADIWVKSYSLYSRERYICNSGFKRKAGTSSLTECVLNKATNVAHWTTPSLKCIRDPALVHQRPAPPSTVATAGVAPQPESLSPSGKEPAASSPSSNNTAATTAEPKSSDKTHTCPPCPAPELLGGPSVFLFPPKPKDTLMISRTPEVTCVVVDVSHEDPEVKFNWYVDGVEVHNAKTKPREEQYNSTYRVVSVLTVLHQDWLNGKEYKCKVSNKALPAPIEKTISKAKGQPREPQVYTLPPSREEMTKNQVSLTCRVKGFYPSDIAVEWESNGQPENNYKTTPPVLKSDGSFFLASKLTVDKSRWQQGNVFSCSVMHEALHNHYTQKSLSLSPGK chain 2: DIQMTQSPSSLSASVGDRVTITCRASENIYSNLAWYQQKPGKSPKLLVYAASHLPDGVPSRFSGSGSGTDYSLTISSLQPEDFATYYCQHFWGTPRTFGQGTKLEIKGGGGSGGGGSGGGGSGGGGSGNWVNVISDLKKIEDLIQSMHIDATLYTESDVHPSCKVTAMKCFLLELQVISLESGDASIHNTVQDLIILANNSLSSNGNVTESGCKECEELEEKNIKEFLQSFVHIVQMFINTS heavy: QVQLQESGPGLVKPSETLSLTCAVYGDSITSGYWNWIRKPPGKGLEYIGYISYTGSTYQNPSLKSRITMSRDTSKNQYYLKLSSVTAADTAVYYCARSRAWIRTYFDYWGQGTLVTVSSASTKGPSVFPLAPSSKSTSGGTAALGCLVKDYFPEPVTVSWNSGALTSGVHTFPAVLQSSGLYSLSSVVTVPSSSLGTQTYICNVNHKPSNTKVDKRVEPKSCDKTHTCPPCPAPELLGGPSVFLFPPKPKDTLMISRTPEVTCVVVDVSHEDPEVKFNWYVDGVEVHNAKTKPREEQYNSTYRVVSVLTVLHQDWLNGKEYKCKVSNKALPAPIEKTISKAKGQPREPQVYTLPPSREEMTKNQVSLWCLVKGFYPSDIAVEWESNGQPENNYDTTPPVLDSDGSFFLYSDLTVDKSRWQQGNVFSCSVMHEALHNHYTQKSLSLSPGK light: DIQMTQSPSSLSASVGDRVTITCSVSSSISSSNLHWYQQKPGKAPKPWIYGTSNLASGVPSRFSGSGSGTDYTLTISSLQPEDFATYYCQQWSSYPLTFGQGTKLEIKRTVAAPSVFIFPPSDEQLKSGTASVVCLLNNFYPREAKVQWKVDNALQSGNSQESVTEQDSKDSTYSLSSTLTLSKADYEKHKVYACEVTHQGLSSPVTKSFNRGEC	2.39	–
